The source of these data is patent publication US20230034768A1 (BIOSION, published 2023).

In assay [1] the target is T1, Recombinant human RANKL-his protein (R&D, Cat #6449-TEC-010) (human, UniProt O14788 140-317, limits assumed).
T1 sequence (looked up): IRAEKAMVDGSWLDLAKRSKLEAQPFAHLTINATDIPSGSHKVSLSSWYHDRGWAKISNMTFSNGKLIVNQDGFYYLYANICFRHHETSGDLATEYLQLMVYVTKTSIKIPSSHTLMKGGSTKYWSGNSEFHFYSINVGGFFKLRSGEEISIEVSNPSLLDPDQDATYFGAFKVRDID
Kind of assay: cell-based or functional assay.

The target in assay [2] is T1, Recombinant human RANKL-his protein …. Kind of assay: cell-based or functional assay. This is another data set of the same source.
The target of assay [3] is T2, human RANKL-his protein (prepared in-house with SEQ ID NO: 43) (human, UniProt O14788 136-317).
T2 construct: also called recombinant human RANKL-his
T2 chain: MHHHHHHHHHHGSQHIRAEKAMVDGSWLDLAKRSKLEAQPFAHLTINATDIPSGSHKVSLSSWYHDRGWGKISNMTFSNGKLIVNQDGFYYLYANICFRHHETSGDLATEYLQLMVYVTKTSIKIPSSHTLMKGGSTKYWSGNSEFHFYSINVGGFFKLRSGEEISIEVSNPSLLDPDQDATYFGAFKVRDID
Kind of assay: Octet BLI, antibody from cell supernatant captured, human RANKL-his in solution. The method, then:
(§1) Briefly, AHC/AMC biosensors (anti-human/anti-mouse IgG Fc capture, ForteBio) were presoaked with 10 mM glycine (pH 1.5) for 3 seconds, and then dipped in a well with running buffer (0.5% w/v BSA in PBST) for 3 seconds, the soaking and dipping steps were repeated for three times. […] A new baseline was run for 180 seconds in another well with HBS-EP⁺. […] Finally, sensors were presoaked with 10 mM glycine (pH 1.5) for 3 seconds, and then dipped in a well with running buffer for 3 seconds, the soaking and dipping steps repeated for three times. The association and dissociation curves were fit to a 1:1 Langmuir binding model using Octet evaluation software.
The chimeric antibody when tested was in HBS-EP⁺ at 5 μg/ml concentration.
On the technique in general: Biolayer interferometry detects binding as a change in optical thickness at a sensor tip.

In assay [4] the target is T3, biotin-labeled human RANKL-Fc protein (prepared in house, SEQ ID NO.: 40) (human, biotin-labeled (sites not given)).
T3 construct: also called RANKL-Fc-biotin
Kind of assay: capture ELISA: captured antibody, biotin-labeled human RANKL-Fc, OD(450-630). The protocol:
(§2) Plates were washed once with wash buffer (PBS+0.05% v/v Tween-20, PBST) and then blocked with 200 μl/well blocking buffer (5% w/v non-fatty milk in PBST) for 2 hours at 37° C. […] After a final wash, plates were incubated with 100 μl/well ELISA substrate TMB (Innoreagents, Cat #TMB-S-002) at room temperature. The reaction was stopped in 3-10 minutes with 50 μl/well 1M H₂SO₄, and the absorbance of each well was read on a microplate reader using dual wavelengths mode with 450 nm for TMB and 630 nm as the reference wavelength. The OD (450-630) values were plotted against antibody concentration. Data were analyzed using Graphpad Prism software and EC₅₀ values were reported.
For the capture ELISA, 96-well micro plates were coated with 2 μg/ml goat anti-human IgG (AffiniPure Goat Anti-Human IgG, F(ab′)₂ fragment specific, Jackson Immunoresearch, Cat #109-005-097) instead of AffiniPure Goat Anti-Mouse IgG, Fcγ fragment specific, 100 μl/well.
For orientation: An ELISA detects its analyte on a solid surface through an enzyme-linked reagent.

Assay [5] deals with T2, human RANKL-his protein (prepared …). Kind of assay: Biacore T200 SPR, antibody captured by anti-human IgG, human RANKL-his in flow, 1:1 fit. The method, then:
(§3) Briefly, goat anti-human IgG (GE healthcare, Cat #BR100839, Human Antibody Capture Kit) was covalently linked to a CM5 chip (carboxy methyl dextran coated chip from GE healthcare #BR10030) via primary amines, using a standard amine coupling kit provided by Biacore. Un-reacted moieties on the biosensor surface were blocked with ethanolamine. […] The antigen-antibody association kinetics was followed for 2 minutes and the dissociation kinetics was followed for 10 minutes. The association and dissociation curves were fit to a 1:1 Langmuir binding model using BIAcore evaluation software.
Background: Surface plasmon resonance follows binding to a sensor surface in real time, without labels.

In assay [6] the target is T4, cynomolgus monkey RANKL-his protein (prepared in-house with SEQ ID NO.:42) (cynomolgus monkey, UniProt O14788 136-317 (human entry), limits assumed).
T4 construct: also called Cynomolgus RANKL
T4 chain: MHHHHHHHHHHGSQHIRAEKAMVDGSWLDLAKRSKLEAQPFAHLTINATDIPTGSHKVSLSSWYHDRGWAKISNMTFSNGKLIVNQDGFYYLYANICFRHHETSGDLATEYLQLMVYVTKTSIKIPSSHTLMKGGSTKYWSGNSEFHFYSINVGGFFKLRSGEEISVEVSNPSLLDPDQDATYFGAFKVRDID
Kind of assay: Biacore T200 SPR, antibody captured by anti-human IgG, cynomolgus RANKL-his in flow, 1:1 fit. The method, then: as §3

The target of assay [7] is T3, biotin-labeled human RANKL-Fc protein …. Kind of assay: competitive ELISA: antibody blocks biotin-labeled human RANKL-Fc binding to coated human RANK-Fc. The protocol: Briefly, human RANK-Fc proteins (prepared in house, SEQ ID NO.: 41) were coated on 96-well micro plates at 2.0 μg/mL in PBS, 100 μl/well, and incubated overnight at 4° C. The next day, plates were washed with wash buffer (PBS+0.05% w/v Tween-20, PBST), and blocked with 5% w/v non-fatty milk in PBST, 200 μl/well, for 2 hours at 37° C.
Plates were washed 4 times using wash buffer, and added and incubated with 100 μl/well of streptavidin conjugated HRP (1:10000 dilution in PBST buffer, Jackson ImmunoResearch Laboratories, Inc., Cat #016-030-084) for 40 minutes at 37° C. Plates were washed again using wash buffer. Finally, TMB was added and the reaction was stopped using 1M H₂SO₄, and the absorbance of each well was read on a microplate reader using dual wavelengths mode with 450 nm for TMB and 630 nm as the reference wavelength. The OD (450-630) values were plotted against antibody concentration. Data were analyzed using Graphpad Prism software and IC₅₀ values were reported.

The target is the same in assay [8]. Kind of assay: competitive ELISA: antibody blocks biotin-labeled human RANKL-Fc binding to coated benchmark denosumab.
Assay [9] addresses T2, human RANKL-his protein (prepared …). Kind of assay: Octet BLI, antibody captured, human RANKL-his in solution. The method, then:
as §1
(§4) Cell supernatants were harvested after six days in shaking flasks, spun down to pellet cells, and then chimeric antibodies were purified from cell supernatants as described above. The purified antibodies were tested in the capture ELISA, competitive ELISA assay and Octet affinity test following the protocols in the foregoing Examples.

The target of assay [10] is T3, biotin-labeled human RANKL-Fc protein …. Kind of assay: capture ELISA: captured antibody, biotin-labeled human RANKL-Fc, OD(450-630). The method, then: as §2, §4
This is another data set of the same source.

The target is the same in assay [11]. Kind of assay: competitive ELISA: antibody blocks biotin-labeled human RANKL-Fc binding to coated human RANK-Fc. The source holds these as a separate data set.
Assay [12] shares this target. Kind of assay: competitive ELISA: antibody blocks biotin-labeled human RANKL-Fc binding to coated benchmark denosumab. This is another data set of the same source.

Read-outs that look alike come from different tables or passages of the source.

The term Kd denotes the concentration at which binding is half-saturated. Usually koff stands for the rate constant with which the complex falls apart. What is called kon is the second-order rate constant of association. By EC50 is commonly meant the concentration that produces a half-maximal response. The IC50 is the midpoint of a concentration-inhibition curve.

B1: humanized antibody huD1A1-V2 (antibody, human IgG4 S228P, kappa, V domains shown)
VH: EVQLVESGGGLVKPGGSLRLSCAASGFTFRNYAMSWVRQAPGKGLEWVSGISSGGTYTYYPDTVKGRFTISRDNAKNSLYLQMNSLRAEDTAVYYCARRDYGDVYEWYFDVWGKGTTVTVSS
VL: DIQMTQSPSSLSASVGDRVTITCKASQDVRTSIAWYQQKPGKAPKLLIYSASYRYTGVPSRFSGSGSGTDFTFTISSLQPEDIATYYCQQHYSSPWTFGGGTKVEIKR
notes: Human IgG4 / kappa
With B1, the “IC50, RANKL-induced osteoclast differentiation of RAW264.7 cells (pNPP, OD405)” value in assay [1] was about 1.42 nM; in assay [2], about 1.45 nM. Besides, the Kd in [3] was under 0.001 nM; in [5], 0.134 nM; in assay [6], 0.42 nM. In addition, the koff in assay [3] is under 1e-07 s⁻¹. The same molecule registered a kon in assay [3] of 112000 M⁻¹ s⁻¹. In [4], the EC50 stood at 0.2 nM. In addition, the values for the concentration for half-maximal inhibition (IC50) in assay [7] and in assay [8] were 0.154 nM and 0.444 nM, respectively.

B2: humanized antibody huD1A1-V3 (antibody, human IgG4 S228P, kappa, V domains shown)
VH: EVQLVESGGGLVKPGGSLRLSCAASGFTFRNYAMSWVRQAPGKGLEWVAGISSGGTYTYYPDTVKGRFTISRDNAKNSLYLQMNSLRAEDTAVYYCARRDYGDVYEWYFDVWGKGTTVTVSS
VL: DIQMTQSPSSLSASVGDRVTITCKASQDVRTSIAWYQQKPGKAPKLLIYSASYRYTGVPSRFSGSGSGTDFTFTISSLQPEDIATYYCQQHYSSPWTFGGGTKVEIKR
notes: Human IgG4 / kappa
In the case of B2, in assay [3], the Kd was under 0.001 nM, the koff is under 1e-07 s⁻¹ and the kon is 106000 M⁻¹ s⁻¹.

B3: humanized antibody huD1A1-V4 (antibody, human IgG4 S228P, kappa, V domains shown)
VH: EVQLVESGGGLVKPGGSLRLSCAASGFTFRNYAMSWVRQAPGKGLEWVAGISSGGTYTYYPDTVKGRFTISRDNARNSLYLQMNSLRAEDTAVYYCARRDYGDVYEWYFDVWGTGTTVTVSS
VL: DIQMTQSPSSLSASVGDRVTITCKASQDVRTSIAWYQQKPGKSPKLLIYSASYRYTGVPSRFSGSGSGTDFTFTISSLQPEDLATYYCQQHYSSPWTFGGGTKVEIKR
notes: Human IgG4 / kappa
As for B3, in [3], the Kd was under 0.001 nM, the koff is under 1e-07 s⁻¹ and the on-rate constant (kon) amounted to 101000 M⁻¹ s⁻¹.

B4: humanized antibody huD1A1-V1 (antibody, human IgG4 S228P, kappa, V domains shown)
VH: EVQLVESGGGLVKPGGSLRLSCAASGFTFRNYAMSWVRQAPGKGLEWVAGISSGGTYTYYPDTVKGRFTISRDNARNSLYLQMNSLRAEDTAVYYCARRDYGDVYEWYFDVWGTGTTVTVSS
VL: DIQMTQSPSSLSASVGDRVTITCKASQDVRTSIAWYQQKPGKAPKLLIYSASYRYTGVPSRFSGSGSGTDFTFTISSLQPEDIATYYCQQHYSSPWTFGGGTKVEIKR
notes: Human IgG4 / kappa
In assay [3], B4 came in with a Kd of under 0.001 nM, a koff of under 1e-07 s⁻¹ and a kon of 124000 M⁻¹ s⁻¹.

B5: humanized antibody huD1A1-V6 (antibody, human IgG4 S228P, kappa, V domains shown)
VH: EVQLVESGGGLVKPGGSLRLSCAASGFTFRNYAMSWVRQAPGKGLEWVAGISSGGTYTYYPDTVKGRFTISRDNAKNSLYLQMNSLRAEDTAVYYCARRDYGDVYEWYFDVWGKGTTVTVSS
VL: DIQMTQSPSSLSASVGDRVTITCKASQDVRTSIAWYQQKPGKSPKLLIYSASYRYTGVPSRFSGSGSGTDFTFTISSLQPEDLATYYCQQHYSSPWTFGGGTKVEIKR
notes: Human IgG4 / kappa
In assay [3], B5 had a Kd of under 0.001 nM, a dissociation rate constant (koff) of under 1e-07 s⁻¹ and a kon of 115000 M⁻¹ s⁻¹.

B6: Chimeric B1A8 (antibody, human IgG2, kappa, V domains shown)
VH: EVQLVESGGDLVKPGGSLKLSCAASGFTFSRYGMSWVRQTPDKRLEWVASISSGGTYTSYPDSVQGRFTITRDSAKNTLYLQMSSLKSEDTAMYYCARRNFITSATDCYFDVWGAGTTVTVSS
VL: DTVLTQSPATLSVTPGASVSLSCRASQSISNNLHWYQQKSHESPRLLIIYASQSISGIPSRFSGSGSGTDFTLSINSVETEDFGVYFCQQSNSWPFTFGGGTKLEIKR
notes: Mouse variable regions on human IgG2 / kappa; also called chimeric antibody B1A8
In assay [9], B6 came in with a Kd of 1.62 nM. Also, it took 2 nM to reach a half-maximal effect in assay [10] (EC50). Moreover, the IC50 in assay [11] was found to be 0.905 nM; in assay [12] it was 4.4 nM.

B7: Chimeric B3D8 (antibody, human IgG2, kappa, V domains shown)
VH: EVQLVESGGDLVKSGGSLKLSCAASGFTFSRYGMSWVRQTPDKRLEWVASISSGGTYTSYPDSVKGRFTITRDSAKNTLYLQMSSLKSEDTAMYYCARRNFITSATDCYFDVWGAGTTVTVSS
VL: DTVLTQSPATLSVTPGASVSLSCRASQSISNNLHWYQQKSHESPRLLIIYASQSISGIPSRFSGSGSGTDFTLSINSVETEDFGVYFCQQSNSWPFTFGGGTKLEIKR
notes: Mouse variable regions on human IgG2 / kappa; also called chimeric antibody B3D8
For the molecule B7, the affinity in assay [9], expressed as Kd, was 2.65 nM. The molecule also displayed an EC50 in [10] of 3.17 nM. The concentration for half-maximal inhibition (IC50) was determined as 3.17 nM in assay [11] and 16.8 nM in [12].

B8: Chimeric D1E3 (antibody, human IgG2, kappa, V domains shown)
VH: EVQLVESGGGLVKPGGSLKLSCAASGFTFSRYAMSWVRQTPEKRLEWVAGISSGGTYTYYPDTVKGRFTISRDSAKNILYLQMGSLRSEDSAMYHCARRDYGDVYEWYFDVWGTGTTVTVSS
VL: DIVMTQSHKFMSASVGDRVSITCKASQGVRIAVAWYQQKPGQSPKLLIYSASYRYTGVPDRFTGSGSGTDFTFTISSVQAEDLAVYYCQQHHSSPWTFGGGTKLEIKR
notes: Mouse variable regions on human IgG2 / kappa; also called chimeric antibody D1E3
Take B8: in [9], the Kd was found to be 0.612 nM. The molecule further gave a concentration for a half-maximal effect (EC50) in assay [10] of 0.183 nM. Further, the half-inhibitory concentration (IC50) in assay [11] came to 0.0505 nM; in assay [12], 0.258 nM.
